The source of these data is CN115746131A.

Assay [1] concerns the target 类风湿因子RF in clinical false-positive serum samples 9233354 (RF1) and 9233353 (RF2). Description: cell-based or functional assay.
For assay [2], the target named is 天然类风湿因子RF (natural rheumatoid factor; 北京霍尔姆斯(Holmes)生物技术有限公司, 货号HA129AN). Description: indirect ELISA, RF coated, ascites diluted 1:100. A general note: In an ELISA, binding on a coated surface is turned into a signal by an enzyme label.
The target is the same in assay [3]. Kind of assay: indirect ELISA, RF coated, ascites diluted 1:500.
For assay [4] the target is unchanged. Kind of assay: indirect ELISA, RF coated, ascites diluted 1:2500.
The target is the same in assay [5]. Description: indirect ELISA, RF coated, ascites diluted 1:12500.
Assay [6] shares this target. Description: indirect ELISA, RF coated, ascites diluted 1:62500.
Assay [7] shares this target. Kind of assay: indirect ELISA, RF coated, ascites diluted 1:312500.
The target is the same in assay [8]. Description: indirect ELISA, RF coated, ascites diluted 1:1562500.

B1: 单克隆抗体anti-blocker-MAB7 (A3-2) (antibody, V domains shown)
VH: VKLQQSGPGLVKPSQSLSLTCTVTGYSITSDYAWNWIRQFPGNKLEWMGYISYSGSTSYNPSLQSRISITRDTSKNQFFLQLNSVTTEDTATYYCARLANWVFDYWGQGTTLTVSS
VL: DIQMTQSPASLSVSVGETVTITCRASENIYSFLAWYQQKQGKSPQLLVYAATNLADGVPSRFSGSGSGTQYSLKINSLQYEDFGSYYCQHFRGTPYTFGGGTRL
On to B1, for which the 干扰的影响降低 (免疫胶体金平台) in assay [1] is 10 倍. For the same molecule, the ELISA read-out at ascites dilution 100 in assay [2] is 2.01. The ELISA read-out at ascites dilution 500 in assay [3] was 1.82. Besides, in assay [4], the ELISA read-out at ascites dilution 2500 came out at 1.52. Besides, the ELISA read-out at ascites dilution 12500 in assay [5] worked out at 1.17. For the same molecule, in assay [6], the ELISA read-out at ascites dilution 62500 is 0.715. Moreover, in assay [7], the ELISA read-out at ascites dilution 312500 is 0.461. Further, the ELISA read-out at ascites dilution 1562500 in assay [8] was 0.195.
